Experimental data taken from patent US20140220031A1 (Biogen, published 2014).
Where a chain is given by its changes, count along the chain named. Numbers in names are those of the source. Values belong to the binder of their own block, whether it stands above or below them.

Experiments:
CD154 [1] = molecular target: T1, CD154 (human, UniProt P29965 113-261, limits assumed); experiment: ELISA-based competitive binding assay; unlabeled Fab against biotin-labeled 5c8 Fab competitor
T1 construct: also called CD40 ligand; CD40L
T1 sequence (looked up): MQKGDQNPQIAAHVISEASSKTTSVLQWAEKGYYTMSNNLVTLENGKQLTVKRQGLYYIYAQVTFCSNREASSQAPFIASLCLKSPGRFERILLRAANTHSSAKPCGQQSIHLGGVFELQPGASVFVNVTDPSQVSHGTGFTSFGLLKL

CD154 [2] = molecular target: T1, CD154; experiment: assay not named in the sentence (mutants characterized by competitive ELISA)
CD154 [3] = molecular target: T1, CD154; experiment: assay not given

ELISA fold-improvement over wildtype (CD154 [1]): 2.3 fold over wildtype
B1: 5c8 Fab Mutant #1 (heavy chain T30H) (Fab, V domains shown)
VH: QVQLVQSGAEVVKPGASVKLSCKASGYIFHSYYMYWVKQAPGQGLEWIGEINPSNGDTNFNEKFKSKATLTVDKSASTAYMELSSLRSEDTAVYYCTRSDGRNDMDSWGQGTLVTVSS
VL: DIVLTQSPATLSVSPGERATISCRASQRVSSSTYSYMHWYQQKPGQPPKLLIKYASNLESGVPARFSGSGSGTDFTLTISSVEPEDFATYYCQHSWEIPPTFGGGTKLEIK
notes: Fab fragment

ELISA fold-improvement over wildtype (CD154 [1]): 0.01 fold over wildtype
B2: 5c8 Fab Mutant #13 (heavy chain N59L) (Fab, V domains shown)
VH: B1 VH with H30T, N59L
VL: B1 VL
notes: also called Asn59Leu

ELISA fold-improvement over wildtype (CD154 [1]): 5.4 fold over wildtype
B3: 5c8 Fab Mutant #18 (heavy chain T30H; light chain S26D/Q27E/T33W) (Fab, V domains shown)
VH: B1 VH
VL: B1 VL with S26D, Q27E, T33W
notes: Fab fragment

ELISA fold-improvement over wildtype (CD154 [1]): 5.2 fold over wildtype
B4: 5c8 Fab Mutant #23 (heavy chain Y33W; light chain S26D/Q27E) (Fab, V domains shown)
VH: B1 VH with H30T, Y33W
VL: B1 VL with S26D, Q27E
notes: Fab fragment

ELISA fold-improvement over wildtype (CD154 [1]): 0.06 fold over wildtype
B5: 5c8 Fab Mutant #10 (light chain Y54E) (Fab, V domains shown)
VH: B1 VH with H30T
VL: B1 VL with Y54E

ELISA fold-improvement over wildtype (CD154 [1]): 5 fold over wildtype
B6: 5c8 Fab Mutant #5 (light chain T33W) (Fab, V domains shown)
VH: B1 VH with H30T
VL: B1 VL with T33W
notes: Fab fragment

ELISA fold-improvement over wildtype (CD154 [1]): 6.3 fold over wildtype
B7: 5c8 Fab Mutant #7 (light chain Q27E) (Fab, V domains shown)
VH: B1 VH with H30T
VL: B1 VL with Q27E
notes: Fab fragment

ELISA fold-improvement over wildtype (CD154 [1]): 2.6 fold over wildtype
B8: 5c8 Fab Mutant #6 (light chain S26D) (Fab, V domains shown)
VH: B1 VH with H30T
VL: B1 VL with S26D
notes: Fab fragment

ELISA fold-improvement over wildtype (CD154 [1]): 2 fold over wildtype
B9: 5c8 Fab Mutant #4 (heavy chain S54N) (Fab, V domains shown)
VH: B1 VH with H30T, S54N
VL: B1 VL
notes: Fab fragment

ELISA fold-improvement over wildtype (CD154 [1]): 0.05 fold over wildtype
B10: 5c8 Fab Mutant #11 (heavy chain Y33F) (Fab, V domains shown)
VH: B1 VH with H30T, Y33F
VL: B1 VL

ELISA fold-improvement over wildtype (CD154 [1]): 3.8 fold over wildtype
B11: 5c8 Fab Mutant #15 (light chain S26D/Q27E/T33W) (Fab, V domains shown)
VH: B1 VH with H30T
VL: B1 VL with S26D, Q27E, T33W
notes: Fab fragment

ELISA fold-improvement over wildtype (CD154 [1]): 8 fold over wildtype
B12: 5c8 Fab Mutant #24 (heavy chain T30H/Y33W; light chain S26D/Q27E) (Fab, V domains shown)
VH: B1 VH with Y33W
VL: B1 VL with S26D, Q27E
notes: Fab fragment

ELISA fold-improvement over wildtype (CD154 [1]): 0.02 fold over wildtype
B13: 5c8 Fab Mutant #8 (light chain S31V) (Fab, V domains shown)
VH: B1 VH with H30T
VL: B1 VL with S31V

ELISA fold-improvement over wildtype (CD154 [1]): 0.22 fold over wildtype
B14: 5c8 Fab Mutant #9 (light chain T33D) (Fab, V domains shown)
VH: B1 VH with H30T
VL: B1 VL with T33D

ELISA fold-improvement over wildtype (CD154 [1]): 5.9 fold over wildtype
B15: 5c8 Fab Mutant #17 (heavy chain Y33W; light chain S26D/Q27E/T33W) (Fab, V domains shown)
VH: B1 VH with H30T, Y33W
VL: B1 VL with S26D, Q27E, T33W
notes: Fab fragment

fold higher affinity compared to the wildtype 5c8 Fab (CD154 [2]): 9 fold over wildtype
ELISA fold-improvement over wildtype (CD154 [1]): 5.6 fold over wildtype
B16: 5c8 Fab Mutant #14 (light chain S26D/Q27E) (Fab, V domains shown)
VH: B1 VH with H30T
VL: B1 VL with S26D, Q27E
notes: Fab fragment; also called double mutant

ELISA fold-improvement over wildtype (CD154 [1]): 5.8 fold over wildtype
B17: 5c8 Fab Mutant #16 (heavy chain T30H; light chain S26D/Q27E) (Fab, V domains shown)
VH: B1 VH
VL: B1 VL with S26D, Q27E
notes: Fab fragment

ELISA fold-improvement over wildtype (CD154 [1]): 0.13 fold over wildtype
B18: 5c8 Fab Mutant #12 (heavy chain N59D) (Fab, V domains shown)
VH: B1 VH with H30T, N59D
VL: B1 VL
notes: also called Asn59Asp

fold higher affinity compared to the wild type (CD154 [3]): 25 fold over wild type
ELISA fold-improvement over wildtype (CD154 [1]): 5.6 fold over wildtype
B19: 5c8 Fab Mutant #25 (heavy chain T30H/Y33W; light chain S26D/Q27E/T33W) (Fab, V domains shown)
VH: B1 VH with Y33W
VL: B1 VL with S26D, Q27E, T33W
notes: Fab fragment; also called combination 5 point mutation (assigned)

ELISA fold-improvement over wildtype (CD154 [1]): 7 fold over wildtype
B20: 5c8 Fab Mutant #2 (heavy chain Y33W) (Fab, V domains shown)
VH: B1 VH with H30T, Y33W
VL: B1 VL
notes: Fab fragment
